Publication PMC8251270 (2021)

Biological target: recombinant receptor‐binding motif (RBM) of SARS‐CoV‐2 spike (S) protein, residue 437–508 (SARS-CoV-2, UniProt P0DTC2 437-508)
Assay: SPR

B1: mAb8 (antibody, V domains shown)
VH: DVKLVESGGGLVKLGGSLKLSCAASGFTFSTDYMSWVRQSPEKRLELVAAINSNGGTTYYPDTVKGRFIISRDNAKNTLYLQMSSLRSEDTALYYCARQVKNGLDYWGQGTSVTVSS
VL: DIQMTQTTSSLSASLGDRVTISCRASQDISNYLNWYQQKPDGTVKLLIYKTSRLHSGVPSRFRGSGSGTDYSLTISNLEEEDVATYFCQQGNTLPPTFGGGTKLEIK
- Kd: 57.4 nM
